Measurements published in patent US20240327505A1.

Columns and labels:
[1] = target: SARS-CoV-1 spike protein on pseudovirus (SARS-CoV-1) (UniProt P59594); assay: cell-based or functional assay
[2] = target: SARS-CoV-2 spike protein on fully infectious (replication-competent) SARS-CoV-2 virus (SARS-CoV-2) (UniProt P0DTC2); assay: cell-based or functional assay
[3] = target: SARS-CoV-2 Wuhan-1 full-length Spike protein on pseudovirus (SARS-CoV-2) (UniProt P0DTC2); assay: cell-based or functional assay
[4] = target: SARS-CoV-2 Spike (S) trimer (SARS-CoV-2) (UniProt P0DTC2); assay: SPR binning (Carterra LSA), antibody amine-coupled to the chip as ligand
[5] = target: SARS-CoV-2 spike S1 protein (SARS-CoV-2) (UniProt P0DTC2)
[6] = target: SARS-CoV-2 spike receptor-binding domain (RBD) (SARS-CoV-2) (UniProt P0DTC2)
[7] = target: SARS-CoV-2 Spike (S) trimer (SARS-CoV-2) (UniProt P0DTC2); assay: ELISA on coated S trimer, 1:50

REGN10987 | Imdevimab (AB-010157) (antibody)
Pseudovirus Neturalization [1]: > 50 µg/mL

CR3022 (AB-009073) (antibody)
Neutralization (Infectious virus; (µg/mL)) [2]: > 50 µg/mL
Pseudovirus Neturalization [1]: 2.61 µg/mL
Pseudovirus Neturalization [3]: > 50 µg/mL
response as ligand (RU) [4]: < 20 RU

LY-CoV555 | Bamlanivimab (AB-010160) (antibody)
Pseudovirus Neturalization [1]: > 50 µg/mL

CA-1 (AB-009265) (antibody)
Neutralization (Infectious virus; (µg/mL)) [2]: 2.46 µg/mL
Pseudovirus Neturalization [1]: > 50 µg/mL
Pseudovirus Neturalization [3]: 0.266 µg/mL
Kd [5]: 0.0436 µM
Response [5]: 0.27 nm
koff [5]: 0.0127 s⁻¹
kon [5]: 291000 M⁻¹ s⁻¹
Kd [6]: 0.00572 µM
Response [6]: 0.53 nm
koff [6]: 0.000681 s⁻¹
kon [6]: 119000 M⁻¹ s⁻¹
OD 450 nm [7]: 2.74 OD

Anti-Nucleocapsid (Neg Control) (antibody)
Pseudovirus Neturalization [1]: > 50 µg/mL
Pseudovirus Neturalization [3]: > 50 µg/mL

COVA1-21 (AB-010159) (antibody)
Pseudovirus Neturalization [1]: > 50 µg/mL
Pseudovirus Neturalization [3]: 21 µg/mL

CB-6 (AB-009264) (antibody)
Neutralization (Infectious virus; (µg/mL)) [2]: 0.13 µg/mL
Pseudovirus Neturalization [1]: > 50 µg/mL
Pseudovirus Neturalization [3]: 0.012 µg/mL
Kd [5]: 0.0277 µM
Response [5]: 0.361 nm
koff [5]: 0.0107 s⁻¹
kon [5]: 386000 M⁻¹ s⁻¹
Kd [6]: 0.00477 µM
Response [6]: 0.58 nm
koff [6]: 0.000844 s⁻¹
kon [6]: 177000 M⁻¹ s⁻¹
OD 450 nm [7]: 2.81 OD

REGN10933 | Casirivimab (AB-010156) (antibody)
Pseudovirus Neturalization [1]: > 50 µg/mL
